T1: MERS-CoV Spike protein (MERS-CoV, UniProt K9N5Q8 18-725)
T1 sequence: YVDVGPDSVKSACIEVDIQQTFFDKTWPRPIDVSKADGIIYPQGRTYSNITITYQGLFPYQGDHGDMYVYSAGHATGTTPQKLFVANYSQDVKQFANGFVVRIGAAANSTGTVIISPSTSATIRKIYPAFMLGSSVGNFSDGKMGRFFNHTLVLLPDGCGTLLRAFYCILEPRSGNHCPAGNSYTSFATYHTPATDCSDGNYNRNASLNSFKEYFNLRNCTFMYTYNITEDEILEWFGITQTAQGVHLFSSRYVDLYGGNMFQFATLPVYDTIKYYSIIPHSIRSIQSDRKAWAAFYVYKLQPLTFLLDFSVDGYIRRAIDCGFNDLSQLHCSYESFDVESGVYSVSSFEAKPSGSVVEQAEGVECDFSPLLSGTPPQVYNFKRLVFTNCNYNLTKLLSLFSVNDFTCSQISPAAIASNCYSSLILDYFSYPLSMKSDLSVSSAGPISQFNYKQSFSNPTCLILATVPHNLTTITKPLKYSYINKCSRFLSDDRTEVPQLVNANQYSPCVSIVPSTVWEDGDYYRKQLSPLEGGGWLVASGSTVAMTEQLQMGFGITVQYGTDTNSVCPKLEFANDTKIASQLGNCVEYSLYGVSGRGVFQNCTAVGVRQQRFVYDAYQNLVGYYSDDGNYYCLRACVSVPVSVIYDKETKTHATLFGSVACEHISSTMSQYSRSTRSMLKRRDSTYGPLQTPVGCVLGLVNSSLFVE

T2: HCov-HKU1 Spike protein (HCoV-HKU1, UniProt Q5MQD0 13-760)
T2 sequence: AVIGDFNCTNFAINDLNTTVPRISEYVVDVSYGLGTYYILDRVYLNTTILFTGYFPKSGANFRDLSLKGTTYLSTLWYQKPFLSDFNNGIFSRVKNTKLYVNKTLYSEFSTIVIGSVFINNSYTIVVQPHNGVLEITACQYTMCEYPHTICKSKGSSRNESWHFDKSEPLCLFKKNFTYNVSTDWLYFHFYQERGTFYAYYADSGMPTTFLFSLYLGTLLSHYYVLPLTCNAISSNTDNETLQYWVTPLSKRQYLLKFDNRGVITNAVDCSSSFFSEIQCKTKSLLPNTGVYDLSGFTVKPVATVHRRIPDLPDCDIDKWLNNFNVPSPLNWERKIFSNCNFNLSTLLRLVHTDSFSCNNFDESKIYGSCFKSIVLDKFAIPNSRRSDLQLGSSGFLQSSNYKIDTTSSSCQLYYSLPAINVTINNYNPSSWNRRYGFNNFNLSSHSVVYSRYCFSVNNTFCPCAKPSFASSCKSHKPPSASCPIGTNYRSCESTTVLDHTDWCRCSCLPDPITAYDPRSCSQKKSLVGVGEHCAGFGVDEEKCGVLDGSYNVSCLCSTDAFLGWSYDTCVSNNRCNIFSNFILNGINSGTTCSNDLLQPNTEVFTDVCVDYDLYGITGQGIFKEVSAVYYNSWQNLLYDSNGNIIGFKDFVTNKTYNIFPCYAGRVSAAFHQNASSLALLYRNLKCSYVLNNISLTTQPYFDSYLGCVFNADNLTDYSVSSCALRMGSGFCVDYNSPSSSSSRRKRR

T3: HCoV-229E Spike protein (HCoV-229E, UniProt P15423 16-560)
T3 sequence: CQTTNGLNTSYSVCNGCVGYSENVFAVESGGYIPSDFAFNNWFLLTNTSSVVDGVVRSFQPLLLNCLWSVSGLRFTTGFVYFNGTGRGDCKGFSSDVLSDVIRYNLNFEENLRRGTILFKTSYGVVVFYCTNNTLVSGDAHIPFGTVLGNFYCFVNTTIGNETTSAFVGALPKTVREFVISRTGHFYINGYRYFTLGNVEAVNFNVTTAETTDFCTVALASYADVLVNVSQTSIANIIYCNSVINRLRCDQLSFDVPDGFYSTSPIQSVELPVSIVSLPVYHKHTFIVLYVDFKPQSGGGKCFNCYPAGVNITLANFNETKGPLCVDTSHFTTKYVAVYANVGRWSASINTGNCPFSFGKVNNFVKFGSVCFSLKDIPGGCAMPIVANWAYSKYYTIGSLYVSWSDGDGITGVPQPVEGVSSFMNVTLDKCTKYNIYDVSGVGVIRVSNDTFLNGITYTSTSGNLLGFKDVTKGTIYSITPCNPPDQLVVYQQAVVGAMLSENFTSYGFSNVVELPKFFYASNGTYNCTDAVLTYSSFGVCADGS

T4: HCoV-NL63 Spike protein (HCoV-NL63, UniProt Q6Q1S2 19-717)
T4 sequence: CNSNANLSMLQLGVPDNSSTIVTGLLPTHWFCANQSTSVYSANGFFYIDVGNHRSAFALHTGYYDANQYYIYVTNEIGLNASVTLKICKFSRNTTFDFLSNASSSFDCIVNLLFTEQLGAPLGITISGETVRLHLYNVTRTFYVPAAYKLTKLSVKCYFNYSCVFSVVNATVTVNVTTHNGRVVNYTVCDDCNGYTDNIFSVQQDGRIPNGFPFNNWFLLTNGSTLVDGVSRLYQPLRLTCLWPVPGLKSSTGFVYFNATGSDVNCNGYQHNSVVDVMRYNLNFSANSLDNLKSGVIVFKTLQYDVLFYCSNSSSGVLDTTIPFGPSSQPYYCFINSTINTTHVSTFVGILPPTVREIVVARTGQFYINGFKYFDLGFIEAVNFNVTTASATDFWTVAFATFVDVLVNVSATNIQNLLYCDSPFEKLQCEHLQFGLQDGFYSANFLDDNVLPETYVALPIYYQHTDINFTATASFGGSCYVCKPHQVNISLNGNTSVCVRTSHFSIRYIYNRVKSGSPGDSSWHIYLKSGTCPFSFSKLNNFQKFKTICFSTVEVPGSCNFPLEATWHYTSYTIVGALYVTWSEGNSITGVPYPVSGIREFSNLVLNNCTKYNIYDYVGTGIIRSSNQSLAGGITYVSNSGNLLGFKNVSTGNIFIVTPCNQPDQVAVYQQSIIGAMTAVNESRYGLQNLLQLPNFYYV

B1: YU505-A02 (antibody, V domains shown)
VH: QVQLVESGAEVKKPGSSVKVSCKASGGTFSSYAISWVRQAPGQGLEWMGGIIPIFGTANYAQKFQGRVTITADESTSTAYMELSSLRSEDTAVYYCARQIWAYDSSGYPVPAEYFQHWGQGTLVTVSS
VL: QSVLTQPPSVSGAPGQRVTISCTGSSSNIGAGYDVHWYQQLPGTAPKLLIYGNSNRPSGVPDRFSGSKSGTSASLAITGLQAEDEADYYCQSYDSSLSGVVFGGGTKLTVL
B2: STE90-C11 (Fab) (Fab, V domains shown)
VH: QVQLVESGGGLVQPGGSLRLSCAASGLTVSSNYMSWVRQAPGKGLEWVSVIYSGGSTYYADSVKGRFTISRDDSKNTLYLQMNSLRAEDTAVYYCARDVADAFDIWGQGTMVTVSS
VL: DIVMTQSPSFLSASVGDRVTITCRASQGISSYLAWYQQKPGKAPKLLIYAASTLQSGVPSRFSGSGSGTEFTLTISSLQPEDFATYYCQQLNSYPPFTFGPGTKVDIK
B3: STE90-C11 (antibody, V domains shown)
VH: B2 VH
VL: B2 VL
B4: YU536-D04 (IgG) (antibody, V domains shown)
VH: QVQLVQSGGGLVQPGGSLRLSCAASGLTVSSNYMSWVRQAPGKGLEWVSVIYSGGSTYYADSVKGRFIISRDNSKNTLYLQMNSLRAEDTAVYYCARDLVVMGLDVWGKGTLVTVSS
VL: DIQLTQSPSSLSASVGDRVTITCRASQGISSYLAWYQQKPGKAPKLLIYAASTLQSGVPSRFSGSGSGTDFTLTISSLQPEDFATYYCQQLNSYPITFGQGTKLEIK
B5: YU536-D04 (Fab) (Fab, V domains shown)
VH: B4 VH
VL: B4 VL
B6: YU536-D04 (antibody, V domains shown)
VH: B4 VH
VL: B4 VL
B7: YU537-H11 (IgG) (antibody, V domains shown)
VH: EVQLLESGGGLIQPGGSLRLSCAASGLTVSSNYMSWVRQAPGKGLEWVSVIYSGGSTYYADSVKGRFTISRDNSKNALYLQMNSLRAEDTAVYYCARGESGSPYGMDVWGQGTLVTVSS
VL: QSVLTQPPSVSAAPGQKVTISCSGSSSNIGNNYVSWYQQLPGTAPKLLIYDTNKRPSGIPDRFSGSKSGTSATLGITGLQTGDEADYYCATWDSSLSVGVFGGGTKLTVL
B8: YU537-H11 (antibody, V domains shown)
VH: B7 VH
VL: B7 VL
B9: YU537-H11 (Fab) (Fab, V domains shown)
VH: B7 VH
VL: B7 VL

What was measured:
SARS-CoV-1 Spike protein = SARS-CoV-1 Spike protein (SARS-CoV-1, UniProt P59594 14-667); experiment: titration ELISA
MERS-CoV Spike protein = target: T1, MERS-CoV Spike protein; experiment: titration ELISA
HCov-HKU1 Spike protein = target: T2, HCov-HKU1 Spike protein; experiment: titration ELISA
HCoV-229E Spike protein = target: T3, HCoV-229E Spike protein; experiment: titration ELISA
HCoV-NL63 Spike protein = target: T4, HCoV-NL63 Spike protein; experiment: titration ELISA
[1] = target: RBD-mFc (Sino Biologicals) (SARS-CoV-2, UniProt P0DTC2 319-541); experiment: BLI, RBD-mFc on anti-mouse Fc capture sensor, Fab in solution
[2] = target: T5, SARS-CoV-2 glycoprotein S (spike) on infectious virus (SARS-CoV-2, UniProt P0DTC2 14-1273); experiment: cell-based or functional assay
[3] = target: T5, SARS-CoV-2 glycoprotein S (spike) on …; experiment: cell-based or functional assay; remark: listed apart in the source
[4] = target: receptor binding domain (RBD) of the S1-subunit of SARS-CoV-2 glycoprotein S (SARS-CoV-2, UniProt P0DTC2 319-541); experiment: titration ELISA, IgG on RBD
S1-His [5] = target: T6, S1-His (SARS-CoV-2, UniProt P0DTC2 16-685); experiment: BLI, antibody on Protein A sensor, S1-His in solution
S1-His [6] = target: T6, S1-His; experiment: BLI, antibody on FAB2G capture sensor, S1-His in solution

Binder | binding result (SARS-CoV-1 Spike protein) | binding result (MERS-CoV Spike protein) | binding result (HCov-HKU1 Spike protein) | binding result (HCoV-229E Spike protein) | binding result (HCoV-NL63 Spike protein) | Kd [1] [nM] | further results
B1 | no binding | no binding | no binding | no binding | no binding | – | –
B2 | – | – | – | – | – | 8.14 | –
B3 | no binding | no binding | no binding | no binding | no binding | – | –
B4 | – | – | – | – | – | – | Virus neutralization (24-well titration) TCID50 (IgG) [2]: 0.4 nM; Virus neutralization (96-well titration) TCID50 (IgG) [2]: 0.2 nM; Neutralization [3]: 0.4 nM; EC50 [4]: 1.1 nM; Kd (S1-His [5]): 23 nM; Kd (S1-His [6]): 5.49 nM
B5 | – | – | – | – | – | 17.5 | –
B6 | no binding | no binding | no binding | no binding | no binding | – | –
B7 | – | – | – | – | – | – | Virus neutralization (24-well titration) TCID50 (IgG) [2]: 0.47 nM; Virus neutralization (96-well titration) TCID50 (IgG) [2]: 0.27 nM; Neutralization [3]: 0.47 nM; EC50 [4]: 1.4 nM; Kd (S1-His [5]): 32.5 nM; Kd (S1-His [6]): 11.7 nM
B8 | no binding | no binding | no binding | no binding | no binding | – | –
B9 | – | – | – | – | – | 61.1 | –

Source: patent US20240059758A1 (CORAT THERAPEUTICS, published 2024)
